For 1 molecule, Kd results are on record in publication PMC8660799, “Cryo-EM reveals unique structural features of the FhuCDB Escherichia coli ferrichrome importer” (Communications Biology, 2021).

As a reminder, the Kd is the concentration at which binding is half-saturated. Low readings indicate a tighter complex, high ones a looser complex.

Assay [1] concerns the target T1, FhuCB wild-type (Escherichia coli, UniProt P07821 1-265; P06972 1-660, red-tris-NTA 2nd generation dye on the His-tag).
T1 construct: FhuC, ATPase subunit, Escherichia coli; whole operon cloned from the genome, FhuD gene deleted; thrombin site after the His-tag; FhuB, membrane subunit, Escherichia coli, 660 residues; also called FhuCB subcomplex; source: E. coli BL21(DE3) C43, purified (TALON, Superose 6 gel filtration) in LMNG; not shown: His-tag, N-terminal, kept; copies: 2 + 1
T1 sequence (looked up) 1: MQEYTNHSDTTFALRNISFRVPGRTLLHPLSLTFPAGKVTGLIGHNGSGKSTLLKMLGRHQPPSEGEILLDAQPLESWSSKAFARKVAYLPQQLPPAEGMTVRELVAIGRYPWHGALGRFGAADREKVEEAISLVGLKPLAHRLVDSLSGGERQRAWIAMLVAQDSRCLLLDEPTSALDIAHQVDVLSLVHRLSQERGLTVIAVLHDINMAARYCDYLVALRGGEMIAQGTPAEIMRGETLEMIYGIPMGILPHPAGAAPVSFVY
T1 sequence (looked up) 2: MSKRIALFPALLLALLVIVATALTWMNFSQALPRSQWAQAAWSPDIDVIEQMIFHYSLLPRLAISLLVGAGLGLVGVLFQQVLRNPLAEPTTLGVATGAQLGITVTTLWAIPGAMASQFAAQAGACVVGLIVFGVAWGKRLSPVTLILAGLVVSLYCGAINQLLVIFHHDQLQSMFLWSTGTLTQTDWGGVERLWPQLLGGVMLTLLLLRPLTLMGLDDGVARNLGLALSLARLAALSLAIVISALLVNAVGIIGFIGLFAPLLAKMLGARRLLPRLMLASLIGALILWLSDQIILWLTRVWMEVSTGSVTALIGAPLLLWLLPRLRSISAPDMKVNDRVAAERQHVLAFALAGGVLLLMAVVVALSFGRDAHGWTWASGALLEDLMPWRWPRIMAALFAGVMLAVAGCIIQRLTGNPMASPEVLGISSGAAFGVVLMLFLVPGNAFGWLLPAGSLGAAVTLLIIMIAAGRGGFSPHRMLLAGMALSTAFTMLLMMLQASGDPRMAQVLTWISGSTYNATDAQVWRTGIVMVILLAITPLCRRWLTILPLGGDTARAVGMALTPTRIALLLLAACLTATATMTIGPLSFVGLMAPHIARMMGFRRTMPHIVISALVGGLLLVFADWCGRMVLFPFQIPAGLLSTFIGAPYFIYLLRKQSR
In words: MST; 40 nM FhuCB in detergent, His-tag labelled with red-tris-NTA 2nd generation dye; serial dilution of 30 μM FhuD without substrate; no ATP-Mg; Monolith NT.115pico, 20% LED power, medium MST power. The note with it: both partners purified.

Assay [2] deals with T1, FhuCB wild-type. In words: MST; 40 nM FhuCB in detergent, His-tag labelled with red-tris-NTA 2nd generation dye; serial dilution of 30 μM FhuD without substrate; with ATP-MgCl2; Monolith NT.115pico, 20% LED power, medium MST power. The settings on record: both partners purified.

B1: FhuD (natural protein, Escherichia coli)
chain: AAIDPNRIVALEWLPVELLLALGIVPYGVADTINYRLWVSEPPLPDSVIDVGLRTEPNLELLTEMKPSFMVWSAGYGPSPEMLARIAPGRGFNFSDGKQPLAMARKSLTEMADLLNLQSAAETHLAQYEDFIRSMKPRFVKRGARPLLLTTLIDPRHMLVFGPNSLFQEILDEYGIPNAWQGETNFWGSTAVSIDRLAAYKDVDVLCFDHDNSKDMDALMATPLWQAMPFVRAGRFQRVPAVWFYGATLSAMHFVRVLDNAIGGKA
notes: In 'FhuD-ferrichrome' the protein was loaded with the small molecule ferrichrome; also called FhuD-ferrichrome (when loaded with ferrichrome)
On to B1, for which the Kd with FhuCB wild-type [1] was determined as 1620 nM; in the assay with FhuCB wild-type [2], 270 nM.
